Measurements: patent publication US20150086592A1, “COMPOSITIONS OF VACCINES AND ADJUVANTS AND METHODS FOR THE TREATMENT OF URINARY TRACT INFECTIONS” (Sequoia Sciences, Inc, priority 2013, published 2015)
Values joined by “and” are separate entries in the source; they are usually repeats but may differ in a detail not shown here. Identical values can stand only once.

Tests used:
FimH [1] = target: FimH (Escherichia coli, UniProt P08191, P197R/T222H); assay: biochemical
Protocol: (§1) The biological activity of the FimCH drug substance (for example, from Example 3) is determined by an in vitro mannose binding assay. The FimH protein is a bacterial adhesin utilized by E. coli to bind mannose residues on glycosylated proteins. During urinary tract infections, the FimH adhesin binds mannosylated uroplakin proteins on bladder epithelial cells, which promotes the internalization of bound E. coli. The binding of FimH to mannosylated uroplakin is essential for E. coli to cause urinary tract infections. To monitor the mannose-binding activity of FimH in vitro, FimH binding to the enzyme horseradish peroxidase (HRP) is observed. HRP is a glycosylated protein containing mannose residues, and has previously been used to study mammalian mannose-binding receptors. Complexes of HRP and the lectin ConA, which binds α-D-mannosyl and α-D-glucosyl groups, have also been generated and studied.
(§2) HRP is then added, excess HRP is rinsed away, and the activity of bound HRP is detected.

FimH [2] = target: FimH (Escherichia coli, UniProt P08191); assay: biochemical; details: concentration at which 50% inhibition of HRP binding to FimH is observed, inhibitor added in the HRP binding step
Protocol: as §1, §2

[3] = Storage stability of FimCH; format: physicochemical; details: stored at −20° C., 0.3 mg/mL in 20 mM MES pH 5.9 or 20 mM trisodium citrate, pH 5.4
Protocol: For the HIC column used Butyl Sepharose 4FF (GE Healthcare 17-0980-01) in XK26 column. Buffer C: 20 mM MES/550 mM Ammonium Sulfate, pH 5.9; 8 ml/min for XK26/10 except loading, pre-equilibrate the column with 3 CV of Buffer A (as above), equilibrate the column with 6 CV of Buffer C, load Pooled FimCH sample at 5 ml/min XK26/10 column, wash the column with 6 CV of Buffer C, elute the column with a linear 4 CV gradient from 0-100% Buffer A with fraction collection. FimCH is formulated in the concentration of 0.3 mg/mL in 20 mM MES pH 5.9 or 20 mM trisodium citrate, pH 5.4. It is then aseptically filtered through a 0.2 μm sterile filter. FimCH is stable and can be stored at −20° C. for about at least 2 years.

[4] = target: T1, horseradish peroxidase (HRP) (UniProt P00433 31-338); assay: in vitro potency assay; inferred from the lack of HRP signal with the Q133K FimH-FimC complex
T1 sequence: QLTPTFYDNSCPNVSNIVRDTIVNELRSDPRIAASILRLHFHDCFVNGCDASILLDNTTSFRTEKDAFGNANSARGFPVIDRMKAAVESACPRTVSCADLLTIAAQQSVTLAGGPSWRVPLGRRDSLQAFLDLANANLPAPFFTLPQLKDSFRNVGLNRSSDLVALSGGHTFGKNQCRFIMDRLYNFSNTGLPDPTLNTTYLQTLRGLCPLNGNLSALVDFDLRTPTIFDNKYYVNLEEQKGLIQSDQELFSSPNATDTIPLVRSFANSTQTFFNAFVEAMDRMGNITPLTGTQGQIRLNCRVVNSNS

FimH (Escherichia coli, UniProt P08191, P197R/T222H), sequence (P08191 22-300 P197R/T222H, one chain of several): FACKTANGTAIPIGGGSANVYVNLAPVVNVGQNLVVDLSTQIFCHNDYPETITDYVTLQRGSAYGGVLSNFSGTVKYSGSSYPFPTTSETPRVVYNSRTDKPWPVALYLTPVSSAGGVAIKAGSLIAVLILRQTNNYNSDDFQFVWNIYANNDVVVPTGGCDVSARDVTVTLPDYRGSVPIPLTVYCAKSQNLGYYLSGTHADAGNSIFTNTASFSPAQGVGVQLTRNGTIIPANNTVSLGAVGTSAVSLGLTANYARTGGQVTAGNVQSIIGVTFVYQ
FimH (Escherichia coli, UniProt P08191), sequence (P08191 22-300 P197R/T222H, one chain of several): as above

**Q.** What does the source list for CO[C@H]1O[C@H](CO)[C@@H](O)[C@H](O)[C@@H]1O [MDMP, methyl-α-D-mannopyranoside]?
**A.** fold higher 50% inhibition concentration than UFMP (FimH [1]; MDMP versus UFMP): approximately 100 fold; IC50 (FimH [2]): ~5.15 µM and ~5.1 µM

**Q.** With “FimCH: non-covalent complex of FimC and FimH recombinant proteins, approximately 51,700 Daltons” as the molecule, how does the “time stable on storage” value [3] read?
**A.** at least 2 years

**Q.** What about the “HRP binding (mannose-binding activity)” value (FimH [1]; captured by anti-FimH antisera on ELISA plate) of the same molecule?
**A.** dose-dependent

B1: FimC (other)
chain: GVALGATRVIYPAGQKQVQLAVTNNDENSTYLIQSWVENADGVKDGRFIVTPPLFAMKGKKENTLRILDATNNQLPQDRESLFWMNVKAIPSMDKSKLTENTLQLAIISRIKLYYRPAKLALPPDQAAEKLRFRRSANSLTLINPTPYYLTVTELNAGTRVLENALVPPMGESAVKLPSDAGSNITYRTINDYGALTPKMTGVME
notes: also called FimC protein
**Q.** Does B1 bind [4]?
**A.** no binding
